Data taken from PMC6536502, “Structural insights into DNA recognition by AimR of the arbitrium communication system in the SPbeta phage” (Cell Discovery, 2019).
Positions count from the first letter of the chain named. Names and notes keep the numbering of the source.

T1: AimR-V129C (Bacillus phage SPbeta, UniProt O64094 1-386, C71S;C107S;C213S;C275S;C304S;C347S;V129C)
T1 sequence: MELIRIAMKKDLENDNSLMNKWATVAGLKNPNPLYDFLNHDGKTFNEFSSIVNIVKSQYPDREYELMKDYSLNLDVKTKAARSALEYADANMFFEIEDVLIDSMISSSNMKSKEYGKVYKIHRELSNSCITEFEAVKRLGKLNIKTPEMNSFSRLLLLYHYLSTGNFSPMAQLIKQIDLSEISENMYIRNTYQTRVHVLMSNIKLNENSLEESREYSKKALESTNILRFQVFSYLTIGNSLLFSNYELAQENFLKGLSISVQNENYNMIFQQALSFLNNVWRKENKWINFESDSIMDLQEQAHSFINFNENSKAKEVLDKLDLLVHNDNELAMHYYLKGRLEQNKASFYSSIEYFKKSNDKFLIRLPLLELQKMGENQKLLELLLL

T2: AimR (Bacillus phage SPbeta, UniProt O64094 1-386)
T2 sequence: T1 sequence with S71C, S107C, C129V, S213C, S275C, S304C, S347C

B1: 37 bp DNA (dsDNA)
DNA 1: ATCACTTAAATATTAGGTTTTAATAACATCTAGTGAT
DNA 2: ATCACTAGATGTTATTAAAACCTAATATTTAAGTGAT
B2: C2A (dsDNA)
DNA 1: AATTAAATATTAGGTTTTAATAACATCTAGT
DNA 2: ACTAGATGTTATTAAAACCTAATATTTAATT
B3: A1G/T31'C (dsDNA)
DNA 1: B2 DNA 1 with A1G, A2C
DNA 2: B2 DNA 2 with T30G, T31C
B4: C2T (dsDNA)
DNA 1: B2 DNA 1 with A2T
DNA 2: B2 DNA 2 with T30A
B5: C2G (dsDNA)
DNA 1: B2 DNA 1 with A2G
DNA 2: B2 DNA 2 with T30C
B6: A1T/T31'A (dsDNA)
DNA 1: B2 DNA 1 with A1T, A2C
DNA 2: B2 DNA 2 with T30G, T31A
B7: arbitrium peptide GMPRGA (peptide)
peptide: GMPRGA
notes: mature arbitrium hexapeptide of the SPbeta phage, cut from the precursor encoded by the aimP gene; also called arbitrium hexapeptide; GMPRGA peptide; source: synthetic peptide, bought: GLS Biochem
B8: AimR protein from the SPbeta phage, full length, wild type (natural protein, UniProt O64094 1-386, looked up)
chain: T1 sequence with S71C, S107C, C129V, S213C, S275C, S304C, S347C
notes: AimR of Bacillus phage SPbeta, full length (DBD residues 1-48, CTD residues 49-386), codon-optimized cDNA in pET21b; also called SPbeta AimR; wild-type AimR; source: E. coli BL21 (DE3), purified (Ni-NTA, anion exchange Source 15Q, SEC Superdex-200)
B9: AimR-V129C (C71S/C107S/C213S/C275S/C304S/C347S/V129C), labelled with Alexa Fluor 488 and Cy5 (natural protein, SPbeta phage, UniProt O64094 1-386, looked up)
chain: T1 sequence
modifications: Alexa Fluor 488 C5 maleimide or Cy5 maleimide conjugated to Cys129 (double-labeled protein fraction collected)
notes: AimR of Bacillus phage SPbeta, full length with six Cys-to-Ser changes and V129C, in pET15b; His tag removed with drICE as for the other mutant proteins; also called dye-labeled protein; source: E. coli BL21 (DE3), purified as the mutant proteins; dye-conjugated and purified on a Source-Q column
B10: AimR-N166C (C71S/C107S/C213S/C275S/C304S/C347S/N166C) (natural protein, SPbeta phage, UniProt O64094 1-386, looked up)
chain: T1 sequence with C129V, N166C
notes: AimR of Bacillus phage SPbeta, full length with six Cys-to-Ser changes and N166C, in pET15b; His tag removed with drICE as for the other mutant proteins; source: E. coli BL21 (DE3), purified as the mutant proteins (gel filtration)

Columns and labels:
[1] = biological target: T1, AimR-V129C; experiment: smFRET; 1 uM DNA; EMSA: 25 mM Tris-HCl pH 8.0, 150 mM NaCl, 5 mM MgCl2, 5 mM DTT, 0.1 mg/ml BSA, 10% glycerol, 50 ug/ml salmon sperm DNA, 4 C, 15 min; smFRET: 20 mM phosphate pH; details: protein: recombinant; tags: 6xHis removed by drICE; Alexa Fluor 488 and Cy5 on C129; chain copies: 2
[2] = biological target: T2, AimR; experiment: EMSA; 5 mM Mg2+; EMSA: 25 mM Tris-HCl pH 8.0, 150 mM NaCl, 5 mM MgCl2, 5 mM DTT, 0.1 mg/ml BSA, 10% glycerol, 50 ug/ml salmon sperm DNA, 4 C, 15 min; smFRET: 20 mM phosphate pH; details: protein: recombinant; tags: C-terminal 8xHis; chain copies: 2; label: FAM
[3] = biological target: B8; experiment: crystal structure; AimR (~270 µM) incubated with arbitrium peptide GMPRGA (2.7 mM), PDB 6JG9; details: both partners purified
[4] = biological target: the molecule itself; experiment: crystal structure; full-length AimR with the 31 bp DNA fragment and 5 mM MgCl2, 2.10 Å, PDB 6JG8
[5] = biological target: the molecule itself; experiment: FRET or BRET; single-molecule FRET in solution between Alexa488 and Cy5 on Cys129 of the protomers, ~150 pM labelled AimR V129C, 25 °C, pH 7.4, 20 mM phosphate, 100 mM NaCl, 0.01% Tween 20; peptides titrated in
[6] = biological target: the molecule itself; experiment: cross-linking; disulfide cross-linking of Cys166 by o-phenanthroline copper complex, AimR-N166C ~1 mg/ml, room temperature 30 min, nonreducing SDS-PAGE; alone or with DNA, unrelated peptide or arbitrium peptide

B1: binds [1].

For B2, the binding signal [2] was ~8 fold lower binding than WT DNA.

In the case of B3, the binding signal [2] is reported as ~19 fold lower affinity than WT DNA.

With B4 the binding signal [2] was ~42 fold lower binding than WT DNA.

B5 was tested, and the binding signal [2] was ~9 fold lower binding than WT DNA.

In the case of B6, the binding signal [2] is reported as ~7 fold lower affinity than WT DNA.

B7: binds [3].

For B8, the “stoichiometry N” value [4] was 2.

B9: binds [5].

For B10, the “stoichiometry N” value [6] was 2.
